# Experimental data as given in US20140371152A1 (DOSHISHA, published 2014).
# B1: #4 polypeptide (peptide)
# peptide: Ac-MHLVICDCYCTTDICYCYSCTPN-NH2
# modifications: cysteine pairing not given here
# notes: Synthetic peptide found by screening against Amyloid β 1-9; used dissolved in DMSO; also called peptide name #4
# Biological target: T1, Amyloid β 1-9 polypeptide corresponding to the N-terminal region of βCTF
# T1 construct: Screening target and KD partner
# Assay: dissociation constant against the Amyloid β 1-9 peptide; method not stated
binder,measurement,value
B1,Kd,2620 nM
